According to patent US20120021972A1 (CADILA HEALTHCARE, published 2012):
Starred links: 1 amine or outer side, 2 acyl side, 3 side chain; linkers in the order of their positions; H or OH if unused. Non-standard residues stand in square brackets, D forms with d. No end group written: not given here. *: point of attachment. NMe2F‑APPA = N-methyl-2-amino-5-(2-fluorophenyl)pentanoic acid, CN([C@@H](CCCc1ccccc1F)C(=O)[*:2])[*:1]; ACPP = 2-amino-5-(3-chlorophenyl)pentanoic acid, O=C([C@H](CCCc1cccc(Cl)c1)N[*:1])[*:2]; Bip(2'-Et-4'-OMe) = CCc1cc(OC)ccc1-c1ccc(C[C@H](N)C(=O)O)cc1; 2F‑APPA = 2-amino-5-(2-fluorophenyl)pentanoic acid; αMePhe(2-F) = C[C@](N)(Cc1ccccc1F)C(=O)O; NMeBip(OMe) = N-methylated Bip(OMe); hhPhe = N[C@@H](CCCc1ccccc1)C(=O)O; NMeD = CN[C@@H](CC(=O)O)C(=O)O; aThr = C[C@H](O)[C@H](N)C(=O)O; CNB = not defined here; Aib = CC(C)(N)C(=O)O; Moc = COC(=O)*

The binders below were run against human GLP-1 receptor (human, UniProt P43220 24-463) (assay: cell-based or functional assay).
human GLP-1 receptor, sequence (P43220 24-463): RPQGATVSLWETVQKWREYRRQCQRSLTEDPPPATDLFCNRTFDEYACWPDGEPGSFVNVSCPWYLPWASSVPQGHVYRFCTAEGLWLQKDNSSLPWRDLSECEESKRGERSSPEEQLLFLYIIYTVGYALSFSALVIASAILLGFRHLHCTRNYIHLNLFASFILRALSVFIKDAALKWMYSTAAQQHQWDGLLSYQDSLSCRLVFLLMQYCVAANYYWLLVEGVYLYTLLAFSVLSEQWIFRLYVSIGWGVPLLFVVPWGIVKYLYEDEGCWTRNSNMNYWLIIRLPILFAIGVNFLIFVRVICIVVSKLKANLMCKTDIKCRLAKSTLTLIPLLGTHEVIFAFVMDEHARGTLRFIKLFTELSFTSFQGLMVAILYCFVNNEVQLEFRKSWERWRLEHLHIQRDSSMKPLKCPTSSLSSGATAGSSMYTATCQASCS

Binder	cAMP release, % activity, 1 nM [%]	cAMP release, % activity, 10 nM [%]	cAMP release, % activity, 100 nM [%]	cAMP release, % activity, 1 µM [%]	cAMP release, % activity, 10 µM [%]
H[Aib][CNB]G[aThr][αMePhe(2-F)][aThr]SD[Bip(2'-Et-4'-OMe)][hhPhe] (reading uncertain; also: reduced (CH2) bonds between 9-10 and 10-11) [Seq. ID. No. 202: H-Aib-(CNB)-G-T(allo)-(α-Me-2F-Phe)-T(allo)-SD-(CH2)-Bip(OMe)-(CH2)-(APPA)]	99	99	99	99	99
H[Aib][CNB]G[aThr][αMePhe(2-F)][aThr]SD[Bip(2'-Et-4'-OMe)][hhPhe] (reading uncertain; also: thioamide bonds between residues 9-10 and 10-11) [Seq. ID. No. 178: H-Aib-(CNB)-G-T(allo)-(α-Me-2F-Phe)-T(allo)-SD-(C═S)-Bip(OMe)-(C═S)-(APPA)]	39	80	86	95	98
H[Aib][CNB]G[aThr][αMePhe(2-F)][aThr]S[NMeD][NMeBip(OMe)][NMe2F‑APPA] (reading uncertain)	86	99	99	99	99
H[Aib][CNB]G[aThr][αMePhe(2-F)][aThr]SD[Bip(2'-Et-4'-OMe)][2F‑APPA] (reading uncertain; also: reduced (CH2) bonds Z9-Z10 and Z10-Z11) [Seq. ID. No. 204: H-Aib-(CNB)-G-T(allo)-(α-Me-2F-Phe)-T(allo)-SD-(CH2)-Bip(OMe)-(CH2)-(2F-APPA)]	96	99	99	99	99
H[Aib]QGTFTSD[Bip(2'-Et-4'-OMe)][ACPP] [Seq. ID. No. 19: H-Aib-QGTFTSD-Bip(OMe)-(ACPP)]	99	99	99	99	99
Moc-H[Aib]QGT[αMePhe(2-F)]TSD[Bip(2'-Et-4'-OMe)][hhPhe] (also: reduced (CH2) bonds between 9-10 and 10-11) [Seq. ID. No. 194: CH3OCO-H-Aib-QGT-(α-Me-2F-Phe)-TSD-(CH2)-Bip(OMe)-(CH2)-(APPA)]	38	77	85	94	97

Each binder was assayed against human glucagon receptor (human, UniProt P47871 26-477) (assay: cell-based or functional assay).

Binder	inhibition of cAMP production, 1 nM [pmol/ml/µg prt]	inhibition of cAMP production, 10 nM [pmol/ml/µg prt]	inhibition of cAMP production, 100 nM [pmol/ml/µg prt]	inhibition of cAMP production, 1 µM [pmol/ml/µg prt]	inhibition of cAMP production, 10 µM [pmol/ml/µg prt]
H[Aib][CNB]G[aThr][αMePhe(2-F)][aThr]SD[Bip(2'-Et-4'-OMe)][hhPhe] (reading uncertain; also: reduced (CH2) bonds between 9-10 and 10-11) [Seq. ID. No. 202: H-Aib-(CNB)-G-T(allo)-(α-Me-2F-Phe)-T(allo)-SD-(CH2)-Bip(OMe)-(CH2)-(APPA)]	9	6	5	3	0
H[Aib][CNB]G[aThr][αMePhe(2-F)][aThr]SD[Bip(2'-Et-4'-OMe)][hhPhe] (reading uncertain; also: thioamide bonds between residues 9-10 and 10-11) [Seq. ID. No. 178: H-Aib-(CNB)-G-T(allo)-(α-Me-2F-Phe)-T(allo)-SD-(C═S)-Bip(OMe)-(C═S)-(APPA)]	0	0	0	0	0
H[Aib][CNB]G[aThr][αMePhe(2-F)][aThr]S[NMeD][NMeBip(OMe)][NMe2F‑APPA] (reading uncertain)	5	2	0	0	0
H[Aib][CNB]G[aThr][αMePhe(2-F)][aThr]SD[Bip(2'-Et-4'-OMe)][2F‑APPA] (reading uncertain; also: reduced (CH2) bonds Z9-Z10 and Z10-Z11) [Seq. ID. No. 204: H-Aib-(CNB)-G-T(allo)-(α-Me-2F-Phe)-T(allo)-SD-(CH2)-Bip(OMe)-(CH2)-(2F-APPA)]	6	5	2	0	0
H[Aib]QGTFTSD[Bip(2'-Et-4'-OMe)][ACPP] [Seq. ID. No. 19: H-Aib-QGTFTSD-Bip(OMe)-(ACPP)]	0	0	0	0	0
Moc-H[Aib]QGT[αMePhe(2-F)]TSD[Bip(2'-Et-4'-OMe)][hhPhe] (also: reduced (CH2) bonds between 9-10 and 10-11) [Seq. ID. No. 194: CH3OCO-H-Aib-QGT-(α-Me-2F-Phe)-TSD-(CH2)-Bip(OMe)-(CH2)-(APPA)]	18	16	12	8	6
